Measurements as given in patent US20210115458.
Read-outs that look alike come from different tables or passages of the source.

System: T1, JUL1 (bead-immobilized for Kd assay) (Arabidopsis thaliana)
T1 sequence: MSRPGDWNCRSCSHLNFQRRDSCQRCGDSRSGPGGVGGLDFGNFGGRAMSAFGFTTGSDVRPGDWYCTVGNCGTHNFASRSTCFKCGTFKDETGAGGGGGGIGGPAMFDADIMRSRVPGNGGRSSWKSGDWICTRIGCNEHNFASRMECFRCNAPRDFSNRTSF
Conditions: FAM-RNA bead fluorescence assay

SMXL5 5' UTR G-quadruplex-forming motif
Kd (with potassium (folded G4)): 0.23 µM | Kd (without potassium): 0.13 µM
